Reference: the supplement of paper PMC10567573
± gives the standard deviation.

Assay: protein stability index of a GFP-peptide fusion (GPS, HEK-293T) (PSI 1-6); higher = more stable
Settings: c terminus: a fixed tail appended
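Note: 24-mer peptide tiles fused after GFP, lentivirally expressed, FACS-sorted into six equal bins by GFP/DsRed ratio, decoded by Illumina sequencing, PSI is the read-weighted mean bin number.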

Row | Sequence | protein stability index (treatment: DMSO) | protein stability index (treatment: MLN4924 1 uM, 8 h)
1 | TIMSLASLLFVVMFIPETKGCSLE [SLC2A12] | 3.37 ± 0.21 | 3.33 ± 0.83
2 | EAEVTILFYFFLYQYCSIHCSDRK [CSTF3] | 2.57 ± 0.56 | 2.53 ± 0.15
3 | TNTLTRIAENGVSERDSEAAKQNH [EHMT1] | 5.41 ± 0.18 | 5.26 ± 0.29
4 | ELVLVSAGFDAARGDPLGGCQVSP [HDAC6] | 2.89 ± 0.27 | 3.14 ± 0.35
5 | FGRLVANVLKSYIGLGHIYSGTFA [CLCN6] | 2.94 ± 0.42 | 2.79 ± 0.33
6 | ETQTLTGWSKGFIGMHREMQVNPI [RHOBTB1] | 2.89 ± 0.26 | 3.12 ± 0.23
7 | HDQCKCENLIMFQNLANEEVRKLT [MATN2] | 3.13 ± 0.25 | 3.58 ± 0.28
8 | ESEPPAPNIRNMAPNSLSAPTMLH [TRAF3IP2] | 4.54 ± 0.24 | 4.37 ± 0.34
9 | LYCSTPTRTAEPAESSVPPVTSIG [SLC35F2] | 3.98 ± 0.25 | 4.08 ± 0.2
10 | KCKAEHDQLLLNYAKKESDLNGAQ [LMNB1] | 4.03 ± 0.38 | 4.01 ± 0.32
11 | TTTVCLVAAALRYLQIFATRRSCI [FAM189A2] | 2.98 ± 0.42 | 2.89 ± 0.25
12 | GTDLPLSEIPRGVRVALDYEAGQV [TRIM15] | 4.33 ± 0.25 | 4.46 ± 0.22
13 | HNYKEMRQLMKVVNEMCPNITRIY [CPXM2] | 2.11 ± 0.37 | 2.17 ± 0.31
14 | HGNLSEEAAKQMRSRGKVLKTKDG [CPOX] | 5.22 ± 0.2 | 5.41 ± 0.2
15 | IVVIPGKVEEVSLPEQVDIIISEP [CARM1] | 2.47 ± 0.45 | 2.16 ± 0.29
16 | RGSETTYESSADIAGDEGTQIPAD [TAF7L] | 5.58 ± 0.12 | 5.62 ± 0.12
17 | YGLDSVKKKCLEWLLNNLMTHQNV [GMCL1] | 3.09 ± 0.26 | 2.73 ± 0.21
18 | YYYTKVMSELFLHTPSDTGVSFQA [PKD2L1] | 2.74 ± 0.59 | 2.67 ± 0.64
19 | GATGECQNFLDPGYPLPKLDMNFS [ZNF449] | 3.47 ± 0.2 | 3.67 ± 0.29
20 | ELESIRQDRDALHMEGLIVRERIL [FEM1B] | 3.44 ± 0.27 | 3.52 ± 0.36
21 | GISNALHRLKLRLAIQEMVSLTSP [PPFIA4] | 2.46 ± 0.22 | 2.18 ± 0.13
22 | PREDGASVNDQCGFGVLRLDADAA [TSPAN10] | 4.38 ± 0.31 | 4.15 ± 0.17

Row | Sequence | protein stability index (treatment: DMSO) | protein stability index (treatment: MLN4924 1 uM, 8 h)
23 | SRAGGPTTPLSPTRLSRLQEKEEL [LMNB1] | 5.15 ± 0.37 | 5.36 ± 0.15
24 | DQHRLYKQIKAGAYDFPSPEWDTV [CAMK2A] | 3.29 ± 0.23 | 3.3 ± 0.24
25 | SAGVPPSAPLQGAVPPTSSVPPVA [SNAP91] | 4.79 ± 0.13 | 4.82 ± 0.15
26 | ASAGKRRCFWLGMEGLETAEGSNS [SDE2] | 3.62 ± 0.26 | 3.84 ± 0.45
27 | ARARERERLAHSRAAAAAAVAAAT [KCNA4] | 4.27 ± 0.24 | 4.38 ± 0.13
28 | ILTGCKNMLFQQNKDGIGEICLWG [ACSBG2] | 3.01 ± 1.4 | 2.92 ± 0.44
29 | CEIQVRTLASAGGPDNLVLLNPEK [ADD1] | 3.42 ± 0.42 | 3.45 ± 0.26
30 | RGQVGLVPKNYVVVLSDGPALHPA [NCK2] | 2.56 ± 0.29 | 2.43 ± 0.23
31 | DGHIDINEFLEAFRLVEKSCPEGD [PPEF2] | 4.67 ± 0.37 | 4.71 ± 0.17
32 | SLGKTNVKDDELDAMLKEASGPIN [MYL5] | 5.14 ± 0.26 | 5.35 ± 0.16
33 | SSQDRMFETMAIEIEQLLARLTGV [GOSR1] | 2.52 ± 0.24 | 2.62 ± 0.44
34 | AHKCLECGKCFSQNTHLTRHQRTH [ZNF263] | 4.92 ± 0.14 | 5 ± 0.3
35 | VIATATVYFKRFYARYSLKSIDPV [CCNC] | 2.8 ± 0.74 | 2.8 ± 0.64
36 | HTVGVLFNNGAHMSLLPDKKTVHY [PLK2] | 2.65 ± 0.33 | 2.66 ± 0.22
37 | DEHEHPLTSELDPEKEQEIETIKI [MIA2] | 5.33 ± 0.42 | 5.36 ± 0.42
38 | RYGRRTAIILSSCLLGLGSLVLIL [SLC2A12] | 5.23 ± 0.14 | 5.1 ± 0.14
39 | KLKPLGEAEREFILNLKKKECKDR [NLN] | 4.17 ± 0.23 | 4.45 ± 0.2
40 | GSKQYSAAIAFTLALFSHLVNHVN [SMG5] | 3.39 ± 0.34 | 3.14 ± 0.43
41 | KGKVLAQQGEYSEAIPILRAALKL [FKBP8] | 2.37 ± 0.38 | 2.42 ± 0.56
42 | HARLSDIWAKTPPITRKAAQLYTL [DHCR7] | 2.29 ± 0.22 | 2.3 ± 0.29
43 | TPLIQQRARDSPEPGAGLGIGDMA [PSD2] | 4.55 ± 0.24 | 4.37 ± 0.12
44 | SLDSLDGLSLTDESDSCVSFEAPL [PSD2] | 4.95 ± 0.2 | 4.86 ± 0.23
